Measured values reported in the DeepSol protein solubility set.

experiment: soluble on expression in E. coli; label from the status in PepcDB or PDB records

**Q.** With “MGSDKIHHHHHHMNLLDHLRRMAGNNLWSNDRLYRAVLALKPGEFEAERTSFFPSIKATLNHVLAVDYLYLDFLEEGGVGAAAHDDFVPFDEPQPLFAAQMAADRRLIAFCDGLSEADLDRRVITDRRADGMIPERIGDILAHVFLHDIHHRGQVHAMLSGTSVVPPQLDEFLLDYDAKLRKAEVERLGL” as the sequence, how does the “soluble on expression in E. coli” value read?
**A.** Its value is “not soluble”.

**Q.** Which “soluble on expression in E. coli” value does the source give for “SPSSPLRVAVVCSSNQNRSMEAHNILSKRGFSVRSFGTGTHVKLPGPAPDKPNVYDFKTTYDQMYNDLLRKDKELYTQNGILHMLDRNKRIKPRPERFQNCTDLFDLILTCEERVYDQVVEDLNSREQETCQPVHVVNVDIQDNHEEATLGAFLICELCQCVSLSSWVLLGLLIATYKNKIK” here?
**A.** The value was “soluble”.

**Q.** With “LLSKKEIITVNVAPGHHFNDVITVKGMADEEIDKTTCGDLKFHLTEKQENLEQKQIFLKNFDDGAGEDLYTSITISLSEALTGFEKFLTKTFDDRLLTLSVKPGRVVRPGDTIKIANEGWPILDNPHGRCGDLYVFVHIEFPPDNWFNEKSELLAIKTNLPSSSSCASHATVNTEDDSNLTNNETISNFRIIHTDDLPEGIRPFKPEAQDSAHQKARSSYCCIQ” as the sequence, how does the “soluble on expression in E. coli” value read?
**A.** The value was “not soluble”.

**Q.** With “MGSDKIHHHHHHMTGNQMFCRENELDESFKQLASYINIPVGVLLPFKSQCFVRHYNKGQIVYYSSDETTHIYLLLKGNIMRENFNLNGDVYRYLNREKVLFPLNNLFQDKVPNEMCTALTDCEMIGIPRDLIEYLCKNHEEIFVKLFSLLSETQCQHIEYNMALTSKLAKERVTKILRYLCQTVGYDHDEFYEIKHFMTIQLLSDMAGISRETTSHIINELREEKILFKNSKNWLVSKDL” as the sequence, how does the “soluble on expression in E. coli” value read?
**A.** The value was “not soluble”.

**Q.** For “MGSDKIHHHHHHMKIILANPRGFCAGVDRAISIVELALEIHGAPIYVRHEVVHNRFVVDGLRDRGAIFVEELDEVPNGAIVIFSAHGVSQAVRQEAKERNLKVFDATCPLVTKVHMQVARASRKGTKAILIGHEGHPEVIGTMGQYDNDKGGIYLVEDVEDIAKLTLRNDEDITFMTQTTLSIDDTADVIEVLKQKYPAIQGPRKNDICYATTNRQQAVRELAELSDLVIVVGSKNSSNSNRLAELASRMGVTAKLIDDANDIEVSWLNNVKVIGLTAGASAPEILVQSVISRLKELGVDEVEELEGCEENTVFEVPKELRINKVE”, which “soluble on expression in E. coli” value is on record?
**A.** The value was “not soluble”.

**Q.** For “MAHHHHHHMTDMHTTLSRVILVAMLHDVADHKYDSDGTLRHRVEAFIKEERNATIETAESHAYALQTIEAVSFSAEKQRGKRWFTSVLPTEWLRVRDIVSDADKLEAIGYAGLLRCLEYTSHLLLPRGKTTEGEQHMKEGGEGRPHWSREFERQCLQNVREHFEEKLNLLPTEYIVTEPGRFLALPRRAEMVEALHQWEENGLPPLS”, which “soluble on expression in E. coli” value is on record?
**A.** The value was “not soluble”.

**Q.** Which “soluble on expression in E. coli” value does the source give for “MGSDKIHHHHHHMTETTSSPQHYLGWDIGGANLKVALVRPDGIAVKVIQVPCPLWQGMDRLDAAIDLALAELGGPGGAKHSVTMTGELADIFPDRASGVWEIALRTHAMLGSELCFFAGASGFVPLAQVQQHANAIASANWLASAAFVATKLQQGLFIDIGSTTADFVLLHDGRPVNRGQTDAERMQHEELVYTGVARTSLMALASRIPFAGQWQNVAAEHFATTADVYRLTGELDPAEDMAATADGAGKSMDETCRRLARMVGRDADDADKTAWVHLAQAFRQQQLAILRDAVLCNLSRNVVRPGAPFIGAGAGVFLVRELAQQLGHEFLAASSLLKAESDQARNWAGVCLPAYAVANLGITANSQERAC” here?
**A.** Its value is “not soluble”.

**Q.** For “MATFVPFVTCLDTGFWNEVNKKKLNDWKLDETPKCISSQLSLHQTEGFKCHLSLSYDSLSSLESTTGLSMSGTLLLYNTIESFKMVDKSDLIRSEAEKIWESITTRKWLQNPRLLSQFFIIAFADLKKFKYYYWTCVPALVYPSEIKQEITPLSSLGADHKILFDFYRKNNFPIFLYSKQSSKMLELSELENNTNPDEICVVVADPSPVAYSAGWMVRNVLAAVAHLHPTWKHCHIISLRSADSIGIKYTWTLPSAECSADGAQNAVPKAVGWERNANDKLQPISVDLSKEFDPKILMERSVDLNLSLIKWRLHPDIQLERYSQLKVLILGAGTLGCNIARCLIGWGVRHISFLDNSTVSYNNPVRQSLSEFEDARLGRGKAETAQAAIQRIFPSIQATAHRLTVPMPGHSIDEKDVPELEKDIAKLEQLVKDHDVVFLALDSREARWLPTVLASRHKKIAISVAIGFDTYVIIRHGIGSRSESVSDVSSSDSVPYSQLSCYFCSDVTAPGNSTFDRTLDQQCTVARPGTSMIASGIAVELLSSVLQYPDPLKTPASHDDNTTVLGAAPHQIRGFLGRFQQILPSVKRFDQCVACGDAIAAQFQQNGWKFVRDVMNSPGRLEEVTGLDELQNSVNAIDIDFEDDEDF”, which “soluble on expression in E. coli” value is on record?
**A.** Its value is “soluble”.
